Experiment [1] has as its target T1, human FcγRIIb receptor protein (R&D Systems) (human, UniProt P31994 46-217).
T1 construct: Bought protein injected over captured antibody in Biacore; also called CD32b
T1 sequence (looked up): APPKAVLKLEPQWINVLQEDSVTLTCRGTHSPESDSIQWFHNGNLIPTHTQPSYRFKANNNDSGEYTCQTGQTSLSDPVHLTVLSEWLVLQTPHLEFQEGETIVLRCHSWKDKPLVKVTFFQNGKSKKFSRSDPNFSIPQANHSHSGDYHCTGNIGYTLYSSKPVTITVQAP
Nature of the experiment: SPR. How it is done:
(§1) Variants were screened for receptor affinity using Biacore™ technology, also referred to as Biacore herein, a surface plasmon resonance (SPR) based technology for studying biomolecular interactions in real time. SPR measurements were performed using a Biacore 3000 instrument (Biacore, Piscataway, N.J.). A protein A/G (Pierce Biotechnology) CM5 biosensor chip (Biacore) was generated using a standard primary amine coupling protocol. All measurements were performed using HBS-EP buffer (10 mM HEPES pH 7.4, 0.15 M NaCl, 3 mM EDTA, 0.005% vol/vol surfactant P20, Biacore). Antibodies at 20 nM or 50 nM in HBS-EP buffer were immobilized on the protein A/G surface and FcγRs were injected. After each cycle, the surface was regenerated by injecting glycine buffer (10 mM, pH 1.5). Data were processed by zeroing time and response before the injection of FcγR and by subtracting appropriate nonspecific signals (response of reference channel and injection of running buffer). Kinetic analyses were performed by global fitting of binding data with a 1:1 Langmuir binding model using BIAevaluation software (Biacore).

Experiment [2] deals with T2, human FcγRIIa (131R), His- and GST-tagged (human, UniProt P12318 34-217).
T2 construct: Expressed in HEK293T cells, purified by nickel chromatography; also called R131 FcγRIIa; not shown: 6xHis and GST tags of the pTT5 vector
T2 sequence (looked up): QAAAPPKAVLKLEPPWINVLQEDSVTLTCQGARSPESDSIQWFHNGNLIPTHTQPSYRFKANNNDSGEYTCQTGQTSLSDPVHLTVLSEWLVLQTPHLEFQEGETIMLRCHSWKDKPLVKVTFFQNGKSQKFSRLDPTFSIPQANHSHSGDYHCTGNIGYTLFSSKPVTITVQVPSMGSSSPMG
Put plainly: SPR. The method, then: as §1

Results on 16 molecules are retold here after US20130315910A1 (Xencor, published 2013).

B1: G236D/H268D (antibody, human IgG1, kappa)
heavy: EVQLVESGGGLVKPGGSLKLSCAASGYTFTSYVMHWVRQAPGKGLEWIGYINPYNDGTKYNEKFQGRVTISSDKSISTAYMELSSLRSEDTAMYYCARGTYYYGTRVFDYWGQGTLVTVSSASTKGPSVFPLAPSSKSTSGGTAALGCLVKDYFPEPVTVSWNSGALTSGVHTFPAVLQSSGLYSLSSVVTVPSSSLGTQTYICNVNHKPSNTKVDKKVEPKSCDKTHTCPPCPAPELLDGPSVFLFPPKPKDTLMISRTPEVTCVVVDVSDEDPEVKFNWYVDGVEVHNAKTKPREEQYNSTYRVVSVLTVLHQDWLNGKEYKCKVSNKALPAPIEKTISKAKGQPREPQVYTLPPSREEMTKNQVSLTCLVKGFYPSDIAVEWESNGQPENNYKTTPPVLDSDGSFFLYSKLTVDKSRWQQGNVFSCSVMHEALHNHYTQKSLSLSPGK
light: DIVMTQSPATLSLSPGERATLSCRSSKSLQNVNGNTYLYWFQQKPGQSPQLLIYRMSNLNSGVPDRFSGSGSGTEFTLTISSLEPEDFAVYYCMQHLEYPITFGAGTKLEIKRTVAAPSVFIFPPSDEQLKSGTASVVCLLNNFYPREAKVQWKVDNALQSGNSQESVTEQDSKDSTYSLSSTLTLSKADYEKHKVYACEVTHQGLSSPVTKSFNRGEC
notes: HuAM4G7 anti-CD19 IgG1 (m1) with these Fc substitutions, EU index; copies: 2 + 2
Take B1: in experiment [1], the “Fold vs WT IgG1” value is 11.6 fold and the Kd was found to be 0.126 µM.

B2: G236I (antibody, human IgG1, kappa)
heavy: not shown
light: DIVMTQSPATLSLSPGERATLSCRSSKSLQNVNGNTYLYWFQQKPGQSPQLLIYRMSNLNSGVPDRFSGSGSGTEFTLTISSLEPEDFAVYYCMQHLEYPITFGAGTKLEIKRTVAAPSVFIFPPSDEQLKSGTASVVCLLNNFYPREAKVQWKVDNALQSGNSQESVTEQDSKDSTYSLSSTLTLSKADYEKHKVYACEVTHQGLSSPVTKSFNRGEC
notes: HuAM4G7 anti-CD19 IgG1 (m1) with this Fc substitution, EU index; copies: 2 + 2
In the case of B2, the binding result in experiment [1] and in experiment [2] was “no binding” each time.

B3: S267D/A327E (antibody, human IgG1, kappa)
heavy: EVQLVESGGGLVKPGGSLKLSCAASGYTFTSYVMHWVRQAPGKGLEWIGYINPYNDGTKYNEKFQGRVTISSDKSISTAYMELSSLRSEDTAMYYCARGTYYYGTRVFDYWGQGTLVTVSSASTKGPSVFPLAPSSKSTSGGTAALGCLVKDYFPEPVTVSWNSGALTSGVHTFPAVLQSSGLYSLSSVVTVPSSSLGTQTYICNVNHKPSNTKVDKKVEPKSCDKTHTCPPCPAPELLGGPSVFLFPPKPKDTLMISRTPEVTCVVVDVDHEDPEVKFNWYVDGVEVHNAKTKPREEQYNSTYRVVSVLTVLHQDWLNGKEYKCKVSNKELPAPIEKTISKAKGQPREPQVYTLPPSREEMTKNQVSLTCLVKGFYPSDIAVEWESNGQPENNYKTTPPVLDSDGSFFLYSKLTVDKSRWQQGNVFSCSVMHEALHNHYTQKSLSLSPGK
light: DIVMTQSPATLSLSPGERATLSCRSSKSLQNVNGNTYLYWFQQKPGQSPQLLIYRMSNLNSGVPDRFSGSGSGTEFTLTISSLEPEDFAVYYCMQHLEYPITFGAGTKLEIKRTVAAPSVFIFPPSDEQLKSGTASVVCLLNNFYPREAKVQWKVDNALQSGNSQESVTEQDSKDSTYSLSSTLTLSKADYEKHKVYACEVTHQGLSSPVTKSFNRGEC
notes: as for B1
For B3, in experiment [1], the “Fold vs WT IgG1” value is 12.1 fold and the equilibrium dissociation constant (Kd) is 0.121 µM.

B4: G236L (antibody, human IgG1, kappa)
heavy: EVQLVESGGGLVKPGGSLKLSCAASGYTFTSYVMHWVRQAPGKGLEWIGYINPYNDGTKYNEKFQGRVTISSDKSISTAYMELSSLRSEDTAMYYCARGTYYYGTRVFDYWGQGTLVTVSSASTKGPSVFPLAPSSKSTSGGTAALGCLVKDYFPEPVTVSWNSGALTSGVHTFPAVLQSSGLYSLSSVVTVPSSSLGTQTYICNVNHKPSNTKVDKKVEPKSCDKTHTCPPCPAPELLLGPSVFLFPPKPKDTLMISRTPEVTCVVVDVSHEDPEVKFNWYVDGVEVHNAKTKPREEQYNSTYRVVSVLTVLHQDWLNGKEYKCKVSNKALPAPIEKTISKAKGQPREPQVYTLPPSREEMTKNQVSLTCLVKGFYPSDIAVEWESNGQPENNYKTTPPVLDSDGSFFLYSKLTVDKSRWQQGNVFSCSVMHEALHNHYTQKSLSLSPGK
light: DIVMTQSPATLSLSPGERATLSCRSSKSLQNVNGNTYLYWFQQKPGQSPQLLIYRMSNLNSGVPDRFSGSGSGTEFTLTISSLEPEDFAVYYCMQHLEYPITFGAGTKLEIKRTVAAPSVFIFPPSDEQLKSGTASVVCLLNNFYPREAKVQWKVDNALQSGNSQESVTEQDSKDSTYSLSSTLTLSKADYEKHKVYACEVTHQGLSSPVTKSFNRGEC
notes: as for B2
As for B4, the binding result in experiment [1] and in experiment [2] was “no binding” each time.

B5: S267D/H268E (antibody, human IgG1, kappa)
heavy: not shown
light: DIVMTQSPATLSLSPGERATLSCRSSKSLQNVNGNTYLYWFQQKPGQSPQLLIYRMSNLNSGVPDRFSGSGSGTEFTLTISSLEPEDFAVYYCMQHLEYPITFGAGTKLEIKRTVAAPSVFIFPPSDEQLKSGTASVVCLLNNFYPREAKVQWKVDNALQSGNSQESVTEQDSKDSTYSLSSTLTLSKADYEKHKVYACEVTHQGLSSPVTKSFNRGEC
notes: as for B1
For the molecule B5, in experiment [1], the “Fold vs WT IgG1” value was found to be 17.8 fold and the dissociation constant (Kd) turned out to be 0.0826 µM.

B6: S267D/A327D (antibody, human IgG1, kappa)
heavy: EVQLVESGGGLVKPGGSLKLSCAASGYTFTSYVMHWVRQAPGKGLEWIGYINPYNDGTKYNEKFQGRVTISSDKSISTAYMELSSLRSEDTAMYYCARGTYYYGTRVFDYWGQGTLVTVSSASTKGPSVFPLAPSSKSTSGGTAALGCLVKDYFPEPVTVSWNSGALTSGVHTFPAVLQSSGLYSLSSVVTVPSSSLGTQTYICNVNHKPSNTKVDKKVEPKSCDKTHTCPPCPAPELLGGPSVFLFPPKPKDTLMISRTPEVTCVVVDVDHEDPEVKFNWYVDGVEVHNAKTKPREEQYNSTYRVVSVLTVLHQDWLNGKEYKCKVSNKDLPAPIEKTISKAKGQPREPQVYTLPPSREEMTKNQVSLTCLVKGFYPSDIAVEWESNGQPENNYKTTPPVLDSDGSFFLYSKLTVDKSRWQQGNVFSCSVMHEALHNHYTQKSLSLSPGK
light: DIVMTQSPATLSLSPGERATLSCRSSKSLQNVNGNTYLYWFQQKPGQSPQLLIYRMSNLNSGVPDRFSGSGSGTEFTLTISSLEPEDFAVYYCMQHLEYPITFGAGTKLEIKRTVAAPSVFIFPPSDEQLKSGTASVVCLLNNFYPREAKVQWKVDNALQSGNSQESVTEQDSKDSTYSLSSTLTLSKADYEKHKVYACEVTHQGLSSPVTKSFNRGEC
notes: as for B1
For B6, in experiment [1], the “Fold vs WT IgG1” value worked out at 6.89 fold and the equilibrium dissociation constant (Kd) amounted to 0.213 µM.

B7: L235Y/S267D (antibody, human IgG1, kappa)
heavy: not shown
light: DIVMTQSPATLSLSPGERATLSCRSSKSLQNVNGNTYLYWFQQKPGQSPQLLIYRMSNLNSGVPDRFSGSGSGTEFTLTISSLEPEDFAVYYCMQHLEYPITFGAGTKLEIKRTVAAPSVFIFPPSDEQLKSGTASVVCLLNNFYPREAKVQWKVDNALQSGNSQESVTEQDSKDSTYSLSSTLTLSKADYEKHKVYACEVTHQGLSSPVTKSFNRGEC
notes: as for B1
On to B7, for which, in experiment [1], the “Fold vs WT IgG1” value was found to be 15.9 fold and the dissociation constant Kd was 0.0922 µM.

B8: G236Y (antibody, human IgG1, kappa)
heavy: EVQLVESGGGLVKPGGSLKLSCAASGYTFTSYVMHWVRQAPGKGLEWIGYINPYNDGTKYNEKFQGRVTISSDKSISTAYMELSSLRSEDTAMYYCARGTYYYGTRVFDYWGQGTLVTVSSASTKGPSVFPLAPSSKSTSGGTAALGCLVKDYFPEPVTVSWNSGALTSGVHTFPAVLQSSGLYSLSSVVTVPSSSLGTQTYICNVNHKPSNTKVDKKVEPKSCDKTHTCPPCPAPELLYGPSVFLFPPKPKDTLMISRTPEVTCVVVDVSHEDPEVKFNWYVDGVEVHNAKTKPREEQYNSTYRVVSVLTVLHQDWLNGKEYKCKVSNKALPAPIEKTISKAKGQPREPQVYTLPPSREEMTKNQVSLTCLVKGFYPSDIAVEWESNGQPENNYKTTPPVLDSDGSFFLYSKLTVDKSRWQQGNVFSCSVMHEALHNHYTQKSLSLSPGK
light: DIVMTQSPATLSLSPGERATLSCRSSKSLQNVNGNTYLYWFQQKPGQSPQLLIYRMSNLNSGVPDRFSGSGSGTEFTLTISSLEPEDFAVYYCMQHLEYPITFGAGTKLEIKRTVAAPSVFIFPPSDEQLKSGTASVVCLLNNFYPREAKVQWKVDNALQSGNSQESVTEQDSKDSTYSLSSTLTLSKADYEKHKVYACEVTHQGLSSPVTKSFNRGEC
notes: as for B2
As for B8, the binding result in experiment [1] and in experiment [2] was “no binding” throughout.

B9: L235S/S267E (antibody, human IgG1, kappa)
heavy: not shown
light: DIVMTQSPATLSLSPGERATLSCRSSKSLQNVNGNTYLYWFQQKPGQSPQLLIYRMSNLNSGVPDRFSGSGSGTEFTLTISSLEPEDFAVYYCMQHLEYPITFGAGTKLEIKRTVAAPSVFIFPPSDEQLKSGTASVVCLLNNFYPREAKVQWKVDNALQSGNSQESVTEQDSKDSTYSLSSTLTLSKADYEKHKVYACEVTHQGLSSPVTKSFNRGEC
notes: as for B1
Take B9: binding in experiment [1] was put at a Kd of 37.8 µM.

B10: G236W (antibody, human IgG1, kappa)
heavy: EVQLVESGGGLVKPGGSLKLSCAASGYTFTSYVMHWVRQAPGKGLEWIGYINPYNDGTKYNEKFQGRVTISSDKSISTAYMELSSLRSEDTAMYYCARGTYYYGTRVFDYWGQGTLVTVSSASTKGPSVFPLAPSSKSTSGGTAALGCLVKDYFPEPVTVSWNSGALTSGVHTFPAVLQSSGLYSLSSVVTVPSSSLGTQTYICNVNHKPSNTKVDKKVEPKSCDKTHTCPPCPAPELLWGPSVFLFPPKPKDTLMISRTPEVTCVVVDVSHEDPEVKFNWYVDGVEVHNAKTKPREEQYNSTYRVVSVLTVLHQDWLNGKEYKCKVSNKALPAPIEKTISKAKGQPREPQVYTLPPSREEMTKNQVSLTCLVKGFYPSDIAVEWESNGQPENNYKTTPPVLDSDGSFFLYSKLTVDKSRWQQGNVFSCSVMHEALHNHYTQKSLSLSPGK
light: DIVMTQSPATLSLSPGERATLSCRSSKSLQNVNGNTYLYWFQQKPGQSPQLLIYRMSNLNSGVPDRFSGSGSGTEFTLTISSLEPEDFAVYYCMQHLEYPITFGAGTKLEIKRTVAAPSVFIFPPSDEQLKSGTASVVCLLNNFYPREAKVQWKVDNALQSGNSQESVTEQDSKDSTYSLSSTLTLSKADYEKHKVYACEVTHQGLSSPVTKSFNRGEC
notes: as for B2
Take B10: in experiment [1], the “Fold vs WT IgG1” value was 0.147 fold and the affinity, expressed as Kd, was 10 µM. For the same molecule, in experiment [2], the “Fold vs WT IgG1” value was found to be 0.0859 fold and the affinity, expressed as Kd, was 10 µM.

B11: G236M (antibody, human IgG1, kappa)
heavy: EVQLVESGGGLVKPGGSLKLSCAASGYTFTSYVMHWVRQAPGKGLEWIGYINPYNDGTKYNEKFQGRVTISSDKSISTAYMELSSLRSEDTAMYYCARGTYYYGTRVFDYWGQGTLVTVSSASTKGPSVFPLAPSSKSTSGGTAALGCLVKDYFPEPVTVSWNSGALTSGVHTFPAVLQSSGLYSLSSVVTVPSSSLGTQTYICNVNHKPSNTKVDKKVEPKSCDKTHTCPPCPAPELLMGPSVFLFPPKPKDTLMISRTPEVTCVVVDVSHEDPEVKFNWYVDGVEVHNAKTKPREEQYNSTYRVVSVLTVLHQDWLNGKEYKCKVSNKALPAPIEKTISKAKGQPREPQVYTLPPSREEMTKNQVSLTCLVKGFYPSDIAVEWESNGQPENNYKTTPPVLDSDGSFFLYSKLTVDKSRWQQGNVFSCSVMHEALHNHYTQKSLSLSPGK
light: DIVMTQSPATLSLSPGERATLSCRSSKSLQNVNGNTYLYWFQQKPGQSPQLLIYRMSNLNSGVPDRFSGSGSGTEFTLTISSLEPEDFAVYYCMQHLEYPITFGAGTKLEIKRTVAAPSVFIFPPSDEQLKSGTASVVCLLNNFYPREAKVQWKVDNALQSGNSQESVTEQDSKDSTYSLSSTLTLSKADYEKHKVYACEVTHQGLSSPVTKSFNRGEC
notes: as for B2
As for B11, in experiment [1], the “Fold vs WT IgG1” value came out at 0.147 fold and the equilibrium dissociation constant (Kd) came out at 10 µM. In addition, in experiment [2], the “Fold vs WT IgG1” value worked out at 0.0859 fold and the equilibrium dissociation constant (Kd) is 10 µM.

B12: G236Q (antibody, human IgG1, kappa)
heavy: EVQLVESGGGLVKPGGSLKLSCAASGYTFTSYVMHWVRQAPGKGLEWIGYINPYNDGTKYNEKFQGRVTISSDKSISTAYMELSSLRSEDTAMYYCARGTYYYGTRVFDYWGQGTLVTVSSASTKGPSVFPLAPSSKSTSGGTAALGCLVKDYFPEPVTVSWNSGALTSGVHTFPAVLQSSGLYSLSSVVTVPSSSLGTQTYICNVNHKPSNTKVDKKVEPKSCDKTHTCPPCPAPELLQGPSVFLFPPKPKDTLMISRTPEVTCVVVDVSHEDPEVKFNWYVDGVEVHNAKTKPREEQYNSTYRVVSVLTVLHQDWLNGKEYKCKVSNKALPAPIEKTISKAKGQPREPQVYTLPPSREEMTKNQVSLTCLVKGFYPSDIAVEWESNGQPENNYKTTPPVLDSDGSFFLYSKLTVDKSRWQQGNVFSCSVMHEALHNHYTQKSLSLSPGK
light: DIVMTQSPATLSLSPGERATLSCRSSKSLQNVNGNTYLYWFQQKPGQSPQLLIYRMSNLNSGVPDRFSGSGSGTEFTLTISSLEPEDFAVYYCMQHLEYPITFGAGTKLEIKRTVAAPSVFIFPPSDEQLKSGTASVVCLLNNFYPREAKVQWKVDNALQSGNSQESVTEQDSKDSTYSLSSTLTLSKADYEKHKVYACEVTHQGLSSPVTKSFNRGEC
notes: as for B2
With B12, in experiment [1], the “Fold vs WT IgG1” value was found to be 0.147 fold and the Kd worked out at 10 µM. In experiment [2], the “Fold vs WT IgG1” value is 0.0859 fold and the affinity, expressed as Kd, was 10 µM.

B13: L234E/H268D (antibody, human IgG1, kappa)
heavy: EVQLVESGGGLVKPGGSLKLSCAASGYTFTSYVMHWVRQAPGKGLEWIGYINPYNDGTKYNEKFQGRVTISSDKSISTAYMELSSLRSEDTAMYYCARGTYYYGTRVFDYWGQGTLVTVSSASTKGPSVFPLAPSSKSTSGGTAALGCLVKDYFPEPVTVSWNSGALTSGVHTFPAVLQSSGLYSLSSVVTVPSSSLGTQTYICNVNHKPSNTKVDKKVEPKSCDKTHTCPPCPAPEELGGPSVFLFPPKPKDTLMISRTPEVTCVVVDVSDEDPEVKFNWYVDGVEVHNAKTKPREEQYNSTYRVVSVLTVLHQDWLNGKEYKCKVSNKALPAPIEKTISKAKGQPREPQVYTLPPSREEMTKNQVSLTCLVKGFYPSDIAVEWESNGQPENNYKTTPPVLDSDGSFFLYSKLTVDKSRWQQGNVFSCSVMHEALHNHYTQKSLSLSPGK
light: DIVMTQSPATLSLSPGERATLSCRSSKSLQNVNGNTYLYWFQQKPGQSPQLLIYRMSNLNSGVPDRFSGSGSGTEFTLTISSLEPEDFAVYYCMQHLEYPITFGAGTKLEIKRTVAAPSVFIFPPSDEQLKSGTASVVCLLNNFYPREAKVQWKVDNALQSGNSQESVTEQDSKDSTYSLSSTLTLSKADYEKHKVYACEVTHQGLSSPVTKSFNRGEC
notes: as for B1
Turning to B13, in experiment [1], the “Fold vs WT IgG1” value is 5.89 fold and the dissociation constant (Kd) stood at 0.249 µM.

B14: G236K (antibody, human IgG1, kappa)
heavy: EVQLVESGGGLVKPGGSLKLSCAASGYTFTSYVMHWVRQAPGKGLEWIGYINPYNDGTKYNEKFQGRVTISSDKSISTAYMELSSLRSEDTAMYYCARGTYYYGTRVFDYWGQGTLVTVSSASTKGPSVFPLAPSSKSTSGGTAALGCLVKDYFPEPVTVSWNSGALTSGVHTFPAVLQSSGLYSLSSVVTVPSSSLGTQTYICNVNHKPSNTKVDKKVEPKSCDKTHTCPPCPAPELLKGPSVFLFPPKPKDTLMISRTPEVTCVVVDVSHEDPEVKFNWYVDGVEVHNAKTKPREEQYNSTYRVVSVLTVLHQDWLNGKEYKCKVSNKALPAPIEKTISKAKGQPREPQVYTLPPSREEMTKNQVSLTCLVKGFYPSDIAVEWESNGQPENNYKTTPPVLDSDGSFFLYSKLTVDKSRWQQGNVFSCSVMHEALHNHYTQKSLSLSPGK
light: DIVMTQSPATLSLSPGERATLSCRSSKSLQNVNGNTYLYWFQQKPGQSPQLLIYRMSNLNSGVPDRFSGSGSGTEFTLTISSLEPEDFAVYYCMQHLEYPITFGAGTKLEIKRTVAAPSVFIFPPSDEQLKSGTASVVCLLNNFYPREAKVQWKVDNALQSGNSQESVTEQDSKDSTYSLSSTLTLSKADYEKHKVYACEVTHQGLSSPVTKSFNRGEC
notes: as for B2
Regarding B14, the “Fold vs WT IgG1” value in experiment [1] amounted to 0.0147 fold; in experiment [2] it was 0.00859 fold. The Kd in experiment [1] and in experiment [2] was 100 µM throughout.

B15: G236H (antibody, human IgG1, kappa)
heavy: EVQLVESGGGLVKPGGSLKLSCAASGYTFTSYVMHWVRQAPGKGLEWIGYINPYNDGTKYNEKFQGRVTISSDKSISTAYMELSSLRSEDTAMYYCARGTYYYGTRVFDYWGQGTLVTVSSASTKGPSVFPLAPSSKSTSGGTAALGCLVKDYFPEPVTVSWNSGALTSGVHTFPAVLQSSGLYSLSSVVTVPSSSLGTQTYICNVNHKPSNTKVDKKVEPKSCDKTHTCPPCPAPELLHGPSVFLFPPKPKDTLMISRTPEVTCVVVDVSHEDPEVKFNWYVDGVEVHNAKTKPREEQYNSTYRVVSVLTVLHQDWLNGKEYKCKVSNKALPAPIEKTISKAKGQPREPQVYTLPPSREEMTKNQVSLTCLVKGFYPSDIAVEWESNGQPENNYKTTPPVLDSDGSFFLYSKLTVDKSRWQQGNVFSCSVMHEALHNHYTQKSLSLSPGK
light: DIVMTQSPATLSLSPGERATLSCRSSKSLQNVNGNTYLYWFQQKPGQSPQLLIYRMSNLNSGVPDRFSGSGSGTEFTLTISSLEPEDFAVYYCMQHLEYPITFGAGTKLEIKRTVAAPSVFIFPPSDEQLKSGTASVVCLLNNFYPREAKVQWKVDNALQSGNSQESVTEQDSKDSTYSLSSTLTLSKADYEKHKVYACEVTHQGLSSPVTKSFNRGEC
notes: as for B2
B15: the binding result in experiment [1] is given as “no binding”. In experiment [2], the “Fold vs WT IgG1” value came out at 0.135 fold and binding was characterised by a dissociation constant (Kd) of 6.35 µM.

B16: S267E/H268D (antibody, human IgG1, kappa)
heavy: not shown
light: DIVMTQSPATLSLSPGERATLSCRSSKSLQNVNGNTYLYWFQQKPGQSPQLLIYRMSNLNSGVPDRFSGSGSGTEFTLTISSLEPEDFAVYYCMQHLEYPITFGAGTKLEIKRTVAAPSVFIFPPSDEQLKSGTASVVCLLNNFYPREAKVQWKVDNALQSGNSQESVTEQDSKDSTYSLSSTLTLSKADYEKHKVYACEVTHQGLSSPVTKSFNRGEC
notes: as for B1
B16: in experiment [1], the “Fold vs WT IgG1” value amounted to 33.3 fold and binding was characterised by a dissociation constant (Kd) of 0.044 µM.
